Experimental data taken from paper PMC11975949 (Frontiers in Pharmacology, 2025).
One block for each molecule: values may come before it.

Legend:
subjects with T2DM = system: subjects with T2DM; parameters: method as in Nauck et al., 1993; Gasbjerg et al., 2020; conditions: pharmacological doses, ref Nauck et al., 1993, Gasbjerg et al., 2020; cited from earlier work
INS-1 832/3 cells [1] = conditions: ref Manchanda et al. (2023); cited from earlier work
INS-1 832/3 cells [2] = conditions: ref Manchanda et al. (2023); cited from earlier work; remark: listed apart in the source
GLP-1R = conditions: various cell types; ref Jorgensen et al., 2005; Manchanda et al., 2023; cited from earlier work
Text: For many GPCRs, homologous desensitization first requires the phosphorylation of the active state of the receptor by the G protein-coupled receptor kinase (GRK) family of kinases. This is then followed by the binding of arrestin, which sterically hinders coupling to G proteins, effectively desensitizing the receptor ([Krasel et al., 2005]). Arrestin can also act as a scaffolding protein, linking the receptor to the cellular endocytic machinery and facilitating internalization ([Ferguson, 2001]). It is now appreciated that arrestin can also act as a signaling molecule in its own right, linking ...

GIPR = conditions: initially considered an antagonist; ref Al-Sabah et al., 2014a; Sparre-Ulrich et al., 2016; cited from earlier work
Text: (§1) [Graaf et al., 2016]). Both receptors are expressed in pancreatic β-cells and other cell types, resulting in numerous pleiotropic effects of their peptide agonists. […] [Liu et al., 2022]; [Drucker and Holst, 2023]). Studies show ...

[3] = system: animal models of diabetes and obesity; conditions: ref McClean et al., 2007, Gault et al.; cited from earlier work
Text: as §1

[4] = subjects with obesity, phase 2 study, ref Véniant et al., 2024, Amgen; cited from earlier work
Text: as §1

[5] = molecular target: NLuc-labeled chimeric receptor GIP/GLP-1R (GIPR with the C-terminal tail of GLP-1R) (human); assay: FRET or BRET; BRET in HEK-293 cells co-transfected 1:1 with NLuc-labeled receptor and NES-Venus-mini-G protein; cells in HBSS, agonist (GLP-1 or GIP) for 15 min, coelenterazine h 1 μM; BRET ratio as fold-change from non-stimulated, dose-response of the agonist
[6] = molecular target: NLuc-labeled chimeric receptor GLP-1/GIPR (GLP-1R with the C-terminal tail of GIPR) (human); assay: as above
[7] = molecular target: NLuc-labeled human GIPR (human) (UniProt P48546); assay: as above
[8] = molecular target: NLuc-labeled human GLP-1R (human) (UniProt P43220); assay: as above
[9] = molecular target: SYFP2-labeled chimeric receptor GLP-1/GIPR (GLP-1R with the C-terminal tail of GIPR) (human); assay: FRET or BRET; BRET in HEK-293 cells co-transfected 1:2 with SYFP2-labeled receptor and Arr3-NLuc; cells in HBSS, agonist (GLP-1 or GIP) for 15 min, coelenterazine h 1 μM; BRET ratio as fold-change from non-stimulated, dose-response of the agonist
[10] = molecular target: RLuc8-labeled chimeric receptor GLP-1/GIPR (GLP-1R with the C-terminal tail of GIPR) (human); assay: FRET or BRET; BRET in HEK-293 cells co-transfected 1:2 with RLuc8-labeled receptor and Arr3-SYFP2; cells in HBSS, agonist (GLP-1 or GIP) for 15 min, coelenterazine h 1 μM; BRET ratio as fold-change from non-stimulated, dose-response of the agonist

NLuc-labeled human GLP-1R (human), sequence (P43220 24-463): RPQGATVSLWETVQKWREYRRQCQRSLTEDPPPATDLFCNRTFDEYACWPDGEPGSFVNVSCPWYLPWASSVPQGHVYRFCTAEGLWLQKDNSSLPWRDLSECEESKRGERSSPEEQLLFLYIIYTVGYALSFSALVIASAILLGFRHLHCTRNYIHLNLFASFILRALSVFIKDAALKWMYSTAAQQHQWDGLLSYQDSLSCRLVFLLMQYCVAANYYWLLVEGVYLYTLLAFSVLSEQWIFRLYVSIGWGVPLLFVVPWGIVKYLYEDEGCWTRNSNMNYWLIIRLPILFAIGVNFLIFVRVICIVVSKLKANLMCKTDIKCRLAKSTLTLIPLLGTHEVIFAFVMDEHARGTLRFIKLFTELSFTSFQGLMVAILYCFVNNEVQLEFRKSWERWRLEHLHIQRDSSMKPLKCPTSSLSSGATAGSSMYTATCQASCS
NLuc-labeled human GIPR (human), sequence (P48546 22-466): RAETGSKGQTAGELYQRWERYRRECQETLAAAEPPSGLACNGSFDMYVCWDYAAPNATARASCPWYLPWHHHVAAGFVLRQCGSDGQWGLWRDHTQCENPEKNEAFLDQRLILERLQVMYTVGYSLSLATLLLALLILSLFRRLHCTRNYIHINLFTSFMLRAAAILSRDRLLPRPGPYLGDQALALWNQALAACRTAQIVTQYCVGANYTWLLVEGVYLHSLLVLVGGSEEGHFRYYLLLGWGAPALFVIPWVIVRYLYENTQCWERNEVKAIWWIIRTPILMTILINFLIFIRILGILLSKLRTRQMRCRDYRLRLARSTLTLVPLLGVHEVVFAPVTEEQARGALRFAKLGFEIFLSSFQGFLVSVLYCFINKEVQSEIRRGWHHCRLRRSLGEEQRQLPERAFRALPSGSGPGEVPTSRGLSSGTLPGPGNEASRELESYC

Molecule: CC[C@H](C)[C@H](NC(=O)[C@H](Cc1ccccc1)NC(=O)[C@H](CCC(=O)O)NC(=O)[C@H](CCCCN)NC(=O)[C@H](C)NC(=O)[C@H](C)NC(=O)[C@H](CCC(N)=O)NC(=O)CNC(=O)[C@H](CCC(=O)O)NC(=O)[C@H](CC(C)C)NC(=O)[C@H](Cc1ccc(O)cc1)NC(=O)[C@H](CO)NC(=O)[C@H](CO)NC(=O)[C@@H](NC(=O)[C@H](CC(=O)O)NC(=O)[C@H](CO)NC(=O)[C@@H](NC(=O)[C@H](Cc1ccccc1)NC(=O)[C@@H](NC(=O)CNC(=O)[C@H](CCC(=O)O)NC(=O)[C@H](C)NC(=O)[C@@H](N)Cc1c[nH]cn1)[C@@H](C)O)[C@@H](C)O)C(C)C)C(=O)N[C@@H](C)C(=O)N[C@@H](Cc1c[nH]c2ccccc12)C(=O)N[C@@H](CC(C)C)C(=O)N[C@H](C(=O)N[C@@H](CCCCN)C(=O)NCC(=O)N[C@@H](CCCNC(=N)N)C(N)=O)C(C)C [GLP-1, Glucagon-like peptide-1]
Overcoming the impaired incretin effect in T2DM (subjects with T2DM): can overcome this impairment in subjects with T2DM
GIP- vs GLP-1-stimulated cAMP production (INS-1 832/3 cells [1]): no difference between GIP- and GLP-1-stimulated cAMP production
GIP- vs GLP-1-stimulated insulin release (INS-1 832/3 cells [2]): no difference between GIP- and GLP-1-stimulated cAMP production or insulin release
Arrestin recruitment to GLP-1R, in words (GLP-1R): results in the rapid recruitment of arrestin

Molecule: (Pro3)GIP: an analog of GIP with a glutamic-acid-to-proline substitution at position 3 (YAPGTFISDYSIAMDKIHQQDFVNWLLAQKGKKNDWKHNITQ; Gastric inhibitory polypeptide; UniProt P09681 52-93, looked up, variant E3P)
Agonism at GIP receptor (GIPR): low-potency agonist
Glucose homeostasis and weight gain [3]: improving glucose homeostasis and preventing weight gain

Molecule: Maridebart cafraglutide: fully human monoclonal anti-human GIPR antagonist antibody conjugated to two GLP-1R agonist peptides
Weight loss [4]: robust weight loss

Molecule: NES-Venus-mGαq
pEC50 of the agonist GIP for recruitment [5]: 9 -log EC50/M
pEC50 of the agonist GLP-1 for recruitment [6]: 7.1 -log EC50/M
pEC50 of the agonist GIP for recruitment [7]: 8.6 -log EC50/M
pEC50 of the agonist GLP-1 for recruitment [8]: 7.3 -log EC50/M

Now from value to molecule:

pEC50 of the agonist GIP for recruitment [5]: 8.9 -log EC50/M
pEC50 of the agonist GLP-1 for recruitment [6]: 7.5 -log EC50/M
pEC50 of the agonist GIP for recruitment [7]: 8.9 -log EC50/M
pEC50 of the agonist GLP-1 for recruitment [8]: 7.6 -log EC50/M
Molecule: NES-Venus-mGαs

pEC50 of the agonist GLP-1 for recruitment [9]: 7.3 -log EC50/M
Molecule: NLuc-labeled arrestin3 (from UniProt P32121 1-409) (natural protein)

pEC50 of the agonist GLP-1 for recruitment [10]: 7.18 -log EC50/M
Molecule: SYFP2-labeled arrestin3 (from UniProt P32121 1-409) (natural protein)
